T1: human epithelial cell adhesion molecule (EpCAM) on the cell surface (human, UniProt P16422 24-314)
T1 construct: whole, on cells; also called KS antigen; KSA
T1 sequence (looked up): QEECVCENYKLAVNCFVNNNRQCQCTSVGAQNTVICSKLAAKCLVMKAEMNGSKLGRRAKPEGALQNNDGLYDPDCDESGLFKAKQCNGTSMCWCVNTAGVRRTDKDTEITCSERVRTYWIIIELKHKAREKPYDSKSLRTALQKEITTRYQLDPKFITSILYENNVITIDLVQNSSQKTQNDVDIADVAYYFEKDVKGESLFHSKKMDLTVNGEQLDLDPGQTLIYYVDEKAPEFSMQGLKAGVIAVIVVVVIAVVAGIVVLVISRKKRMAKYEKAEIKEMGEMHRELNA


How the values were obtained:
[1] = target: soluble human EpCAM-murine Fc (KSA-muFc) (human) (UniProt P16422); experiment: ELISA on plates coated with KSA-muFc; Group 1
[2] = target: soluble human EpCAM-murine Fc (KSA-muFc) (human) (UniProt P16422); experiment: EpCAM binding assay (ELISA on KSA-muFc)
[3] = target: soluble human EpCAM-murine Fc (KSA-muFc) (human) (UniProt P16422); experiment: ELISA on plates coated with KSA-muFc; Group 2, normalized to VK8/VH7
[4] = target: soluble human EpCAM-murine Fc (KSA-muFc) (human) (UniProt P16422); experiment: ELISA on plates coated with KSA-muFc; Group 3, normalized to VK8/VH7-IL2
[5] = target: soluble human EpCAM-murine Fc (KSA-muFc) (human) (UniProt P16422); experiment: SPR (Biacore), EpCAM-muFc coupled to CM5 chip, fusion protein in solution
[6] = target: soluble human EpCAM-murine Fc (KSA-muFc) (human) (UniProt P16422); experiment: ELISA on plates coated with KSA-muFc; Group 2, control to which the group is normalized
[7] = target: T1, human epithelial cell adhesion molecule …; experiment: 125I-labelled protein on EpCAM-positive PC-3 tumor cells, saturation binding with Scatchard analysis
Description: Purified KS-1/4 antibodies were iodinated with ¹²⁵I using standard techniques, and increasing concentrations of labeled protein were incubated with the EpCAM-positive cell line PC-3. Saturation binding curves were generated and the dissociation constants were determined by Scatchard analysis.
In addition, the binding of iodinated VK8/VH7 and VK8/VH7-IL2 to EpCAM expressed on the surface of PC-3 tumor cells was compared to binding of iodinated VK0/VH0-IL2, using methods described in Example 1F. Within experimental error, essentially identical binding affinities were found for VK8/VH7 and VK0/VH0, and for VK8/VH7-IL2 and VK0/VH0-IL2.

| Relative binding (fold-increase in protein concentration required to reach an equivalent level of binding) [3] | Relative binding (fold-increase in protein concentration required to reach an equivalent level of binding) [4] | Molecule | other results |
| --- | --- | --- | --- |
| – | – | VK0/VH0 (Hybridoma chKS-1/4) (antibody) | Relative binding (fold-increase in protein concentration required to reach an equivalent level of binding) [1]: 1 fold |
| – | – | VK6/VH6 (Construct 1) (antibody, V domains shown) VH: QVQLVQSGAEVKKPGESVKISCKASGYTFTNYGMNWVRQAPGKGLEWMGWINTYTGEPTYAQKFQGRVTISLDTSTSTAYLQLSSLRAEDTAVYFCVRFISKGDYWGQGTSVTVSS VL: EIVLTQSPATLSLSPGERVTLTCSASSSVSYMLWYQQKPGQAPKLLIFDTSNLASGIPARFSGSGSGTDYTLTISSLEPEDFAVYYCHQRSGYPYTFGGGTKLEIK | fold less active in an EpCAM binding assay [2]: > 10 fold |
| 2 fold | – | VK1/VH1 (antibody, V domains shown) VH: QIQLVQSGPELKKPGSSVKISCKASGYTFTNYGMNWVRQAPGKGLKWMGWINTYTGEPTYADDFKGRFTITAETSTSTLYLQLNNLRSEDTATYFCVRFMSKGDYWGQGTTVTVSS VL: QIVLTQSPASLAVSPGQRATITCSASSSVSYILWYQQKPGQPPKPWIFDTSNLASGFPSRFSGSGSGTSYTLTINSLEAEDAATYYCHQRSGYPYTFGGGTKVEIK | – |
| 3 to 4 fold | – | VK1/VH2.5-IL2 (protein) VL: QIVLTQSPASLAVSPGQRATITCSASSSVSYILWYQQKPGQPPKPWIFDTSNLASGFPSRFSGSGSGTSYTLTINSLEAEDAATYYCHQRSGYPYTFGGGTKVEIK VH: QIQLVQSGPELKKPGSSVKISCKASGYTFTNYGMNWVRQAPGKGLKWMGWINTYTGEPTYADDFKGRFTITAETSTSTLYLQLNNLRSEDTATYFCVRFISKGDYWGTGTTVTVSS | – |
| – | > 10 fold | VK1/VH2.2-IL2 (protein) VL: QIVLTQSPASLAVSPGQRATITCSASSSVSYILWYQQKPGQPPKPWIFDTSNLASGFPSRFSGSGSGTSYTLTINSLEAEDAATYYCHQRSGYPYTFGGGTKVEIK VH: QIQLVQSGPELKKPGSSVKISCKASGYTFTNYGMNWVRQAPGKGLKWMGWINTYTGEPTYADDFKGRFTITAETSTSTLYLQLNNLRSEDTATYFCVRFIVSKGDYWGQGTTVTVSS | – |
| – | 7 fold | VK1/VH2.3-IL2 (protein) VL: QIVLTQSPASLAVSPGQRATITCSASSSVSYILWYQQKPGQPPKPWIFDTSNLASGFPSRFSGSGSGTSYTLTINSLEAEDAATYYCHQRSGYPYTFGGGTKVEIK VH: QIQLVQSGPELKKPGSSVKISCKASGYTFTNYGMNWVRQAPGKGLKWMGWINTYTGEPTYADDFKGRFTITAETSTSTLYLQLNNLRSEDTATYFCVRFISAKGDYWGQGTTVTVSS | – |
| 1.5 fold | – | VK1/VH2-IL2 (protein) VL: QIVLTQSPASLAVSPGQRATITCSASSSVSYILWYQQKPGQPPKPWIFDTSNLASGFPSRFSGSGSGTSYTLTINSLEAEDAATYYCHQRSGYPYTFGGGTKVEIK VH: QIQLVQSGPELKKPGSSVKISCKASGYTFTNYGMNWVRQAPGKGLKWMGWINTYTGEPTYADDFKGRFTITAETSTSTLYLQLNNLRSEDTATYFCVRFISKGDYWGQGTTVTVSS | koff [5]: 0.00053 s⁻¹; kon [5]: 170000 M⁻¹ s⁻¹ |
| – | > 10 fold | VK1/VH2.1-IL2 (protein) VL: QIVLTQSPASLAVSPGQRATITCSASSSVSYILWYQQKPGQPPKPWIFDTSNLASGFPSRFSGSGSGTSYTLTINSLEAEDAATYYCHQRSGYPYTFGGGTKVEIK VH: QIQLVQSGPELKKPGSSVKISCKASGYTFTNYGMNWVRQAPGKGLKWMGWINTYTGEPTYADDFKGRFTITAETSTSTLYLQLNNLRSEDTATYFCVRFIISKGDYWGQGTTVTVSS | – |
| 1 to 2 fold | – | VK1/VH2 (antibody, V domains shown) VH: QIQLVQSGPELKKPGSSVKISCKASGYTFTNYGMNWVRQAPGKGLKWMGWINTYTGEPTYADDFKGRFTITAETSTSTLYLQLNNLRSEDTATYFCVRFISKGDYWGQGTTVTVSS VL: QIVLTQSPASLAVSPGQRATITCSASSSVSYILWYQQKPGQPPKPWIFDTSNLASGFPSRFSGSGSGTSYTLTINSLEAEDAATYYCHQRSGYPYTFGGGTKVEIK | – |
| – | 3 fold | VK1/VH2.4-IL2 (protein) VL: QIVLTQSPASLAVSPGQRATITCSASSSVSYILWYQQKPGQPPKPWIFDTSNLASGFPSRFSGSGSGTSYTLTINSLEAEDAATYYCHQRSGYPYTFGGGTKVEIK VH: QIQLVQSGPELKKPGSSVKISCKASGYTFTNYGMNWVRQAPGKGLKWMGWINTYTGEPTYADDFKGRFTITAETSTSTLYLQLNNLRSEDTATYFCVRFISKTGDYWGQGTTVTVSS | – |
| 5 fold | 2 fold | VK1/VH1-IL2 (protein) VL: QIVLTQSPASLAVSPGQRATITCSASSSVSYILWYQQKPGQPPKPWIFDTSNLASGFPSRFSGSGSGTSYTLTINSLEAEDAATYYCHQRSGYPYTFGGGTKVEIK VH: QIQLVQSGPELKKPGSSVKISCKASGYTFTNYGMNWVRQAPGKGLKWMGWINTYTGEPTYADDFKGRFTITAETSTSTLYLQLNNLRSEDTATYFCVRFMSKGDYWGQGTTVTVSS | koff [5]: 0.0022 s⁻¹; kon [5]: 280000 M⁻¹ s⁻¹ |
| – | – | VK8/VH7 (Construct 3) (antibody, V domains shown, Intact antibody with human constant regions (pdHL7 vector); also called KS antibody (Construct 3)) VH: QIQLVQSGAEVKKPGETVKISCKASGYTFTNYGMNWVKQTPGKGLKWMGWINTYTGEPTYADDFKGRFAFSLETSTSTAFLQINNLRSEDTATYFCVRFISKGDYWGQGTSVTVSS VL: EIVLTQSPATLSLSPGERVTLTCSASSSVSYMLWYQQKPGSSPKPWIFDTSNLASGFPARFSGSGSGTSYSLIISSMEAEDAATYYCHQRSGYPYTFGGGTKLEIK | Relative binding (fold-increase in protein concentration required to reach an equivalent level of binding) [6]: 1 fold; binding result [7]: binds |
| 8 fold | – | VK0/VH1 (antibody, V domains shown) VH: QIQLVQSGPELKKPGSSVKISCKASGYTFTNYGMNWVRQAPGKGLKWMGWINTYTGEPTYADDFKGRFTITAETSTSTLYLQLNNLRSEDTATYFCVRFMSKGDYWGQGTTVTVSS VL: QILLTQSPAIMSASPGEKVTMTCSASSSVSYMLWYQQKPGSSPKPWIFDTSNLASGFPARFSGSGSGTSYSLIISSMEAEDAATYYCHQRSGYPYTFGGGTKLEIK | – |
| – | – | VK0/VH'369 ('369 chKS-1/4) (antibody, V domains shown) VH: QIQLVQSGPELKKPGETVKISCKASGYTFTNYGMNWVKQTPGKGLKWMGWINTYTGEPTYADDFKGRFAFSLETSASTAFLQIQQPQNMRTMATYFCVRFISKGDYWGQGTSVTVSS VL: QILLTQSPAIMSASPGEKVTMTCSASSSVSYMLWYQQKPGSSPKPWIFDTSNLASGFPARFSGSGSGTSYSLIISSMEAEDAATYYCHQRSGYPYTFGGGTKLEIK | Relative binding (fold-increase in protein concentration required to reach an equivalent level of binding) [1]: > 30 fold |
| 1 fold | – | VK1/VH7 (antibody, V domains shown) VH: QIQLVQSGAEVKKPGETVKISCKASGYTFTNYGMNWVKQTPGKGLKWMGWINTYTGEPTYADDFKGRFAFSLETSTSTAFLQINNLRSEDTATYFCVRFISKGDYWGQGTSVTVSS VL: QIVLTQSPASLAVSPGQRATITCSASSSVSYILWYQQKPGQPPKPWIFDTSNLASGFPSRFSGSGSGTSYTLTINSLEAEDAATYYCHQRSGYPYTFGGGTKVEIK | – |
